# Source: US20190194660A1 (UNIVERSITY OF SHEFFIELD, published 2019)
# B1: FLAG-tagged SRSF1 11-196 quadruple mutant (SRSF1-m4) (other)
# chain: AGNNDCRIYVGNLPPDIRTKDIEDVFYKYGAIRDIDLKNRRGGPPFAFVEFEDPRDAEDAVYGRDGYDYDGYRLRVEFPASGAGTGRGGGGGGGGGAPRGRYGPPSAASENRVVVSGLPPSGSWQDLKDHMREAGDVCYADVYRDGTGVVEFVRKEDMTYAVRKLDNTKFRSHEGETAYIRVKVDG
# notes: also called p3xFLAG/SRSF1 (11-196)-m4; dominant negative mutant SRSF1-m4; not shown: FLAG tag from the p3xFLAG vector (Sigma)
# Biological target: T1, endogenous NXF1 in mouse neuronal N2A cells (mouse (endogenous in mouse neuronal N2A …, UniProt Q99JX7 2-618))
# T1 construct: Detected with anti-NXF1 clone 53H8 after anti-FLAG immunoprecipitation; also called TAP/NXF1; nuclear export factor 1
# T1 sequence (looked up): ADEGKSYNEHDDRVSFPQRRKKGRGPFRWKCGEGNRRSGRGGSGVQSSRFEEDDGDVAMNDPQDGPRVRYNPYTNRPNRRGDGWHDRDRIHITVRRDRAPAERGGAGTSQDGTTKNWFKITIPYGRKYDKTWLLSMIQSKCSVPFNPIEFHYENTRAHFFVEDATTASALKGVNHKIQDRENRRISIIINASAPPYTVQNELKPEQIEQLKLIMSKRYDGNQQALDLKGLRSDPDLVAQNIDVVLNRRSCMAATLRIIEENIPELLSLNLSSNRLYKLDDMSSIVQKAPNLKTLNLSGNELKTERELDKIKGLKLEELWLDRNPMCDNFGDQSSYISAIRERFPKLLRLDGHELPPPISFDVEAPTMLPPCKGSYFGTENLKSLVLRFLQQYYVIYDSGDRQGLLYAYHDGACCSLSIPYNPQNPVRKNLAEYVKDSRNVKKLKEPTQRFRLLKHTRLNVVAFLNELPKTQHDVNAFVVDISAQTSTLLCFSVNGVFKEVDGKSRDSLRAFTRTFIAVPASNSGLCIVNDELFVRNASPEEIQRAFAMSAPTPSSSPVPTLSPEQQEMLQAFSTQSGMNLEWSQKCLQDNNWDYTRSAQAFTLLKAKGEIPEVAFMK
# Test: anti-FLAG co-immunoprecipitation of endogenous NXF1 from transfected N2A cells (FIG. 6)
binder,measurement,value
B1,binding result,no binding
